US20240067696A1 (ZEALAND PHARMA A S, published 2024)
Non-standard residues stand in square brackets, D forms with d. Dab = NCC[C@H](N)C(=O)O; Aib = CC(C)(N)C(=O)O

biological target: human glucagon receptor (human, UniProt P47871 26-477); assay: cell-based or functional assay
Sequence (P47871 26-477): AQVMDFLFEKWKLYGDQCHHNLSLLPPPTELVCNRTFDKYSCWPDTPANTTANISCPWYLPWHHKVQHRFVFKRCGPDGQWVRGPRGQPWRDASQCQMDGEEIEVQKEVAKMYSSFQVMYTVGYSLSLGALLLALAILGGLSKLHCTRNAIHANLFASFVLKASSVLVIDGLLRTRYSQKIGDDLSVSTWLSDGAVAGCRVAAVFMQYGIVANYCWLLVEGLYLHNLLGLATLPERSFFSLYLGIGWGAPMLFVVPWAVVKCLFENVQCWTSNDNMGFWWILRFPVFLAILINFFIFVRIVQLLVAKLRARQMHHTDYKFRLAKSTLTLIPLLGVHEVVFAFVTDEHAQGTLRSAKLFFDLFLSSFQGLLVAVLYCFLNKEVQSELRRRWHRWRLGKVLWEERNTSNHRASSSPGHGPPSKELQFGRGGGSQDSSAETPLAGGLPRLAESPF

Binder	GCG-R EC50 in vitro [nM] (cAMP, AlphaScreen, HEK293 cells expressing human Glucagon-R)
H-HSQGTFTSDYSKYLD[Aib]ARAKSFVEWLEKT-OH (SMILES CC(C)C[C@H](NC(=O)[C@H](Cc1c[nH]c2ccccc12)NC(=O)[C@H](CCC(=O)O)NC(=O)[C@@H](NC(=O)[C@H](Cc1ccccc1)NC(=O)[C@H](CO)NC(=O)[C@H](CCCCN)NC(=O)[C@H](C)NC(=O)[C@H](CCCNC(=N)N)NC(=O)[C@H](C)NC(=O)C(C)(C)NC(=O)[C@H](CC(=O)O)NC(=O)[C@H](CC(C)C)NC(=O)[C@H](Cc1ccc(O)cc1)NC(=O)[C@H](CCCCN)NC(=O)[C@H](CO)NC(=O)[C@H](Cc1ccc(O)cc1)NC(=O)[C@H](CC(=O)O)NC(=O)[C@H](CO)NC(=O)[C@@H](NC(=O)[C@H](Cc1ccccc1)NC(=O)[C@@H](NC(=O)CNC(=O)[C@H](CCC(N)=O)NC(=O)[C@H](CO)NC(=O)[C@@H](N)Cc1c[nH]cn1)[C@@H](C)O)[C@@H](C)O)C(C)C)C(=O)N[C@@H](CCC(=O)O)C(=O)N[C@@H](CCCCN)C(=O)N[C@H](C(=O)O)[C@@H](C)O) [Compound 29]	0.023
H-HSQGTFTSDYSKYLD[Aib]ARAESFVKWLESA-OH (SMILES CC(C)C[C@H](NC(=O)[C@H](Cc1c[nH]c2ccccc12)NC(=O)[C@H](CCCCN)NC(=O)[C@@H](NC(=O)[C@H](Cc1ccccc1)NC(=O)[C@H](CO)NC(=O)[C@H](CCC(=O)O)NC(=O)[C@H](C)NC(=O)[C@H](CCCNC(=N)N)NC(=O)[C@H](C)NC(=O)C(C)(C)NC(=O)[C@H](CC(=O)O)NC(=O)[C@H](CC(C)C)NC(=O)[C@H](Cc1ccc(O)cc1)NC(=O)[C@H](CCCCN)NC(=O)[C@H](CO)NC(=O)[C@H](Cc1ccc(O)cc1)NC(=O)[C@H](CC(=O)O)NC(=O)[C@H](CO)NC(=O)[C@@H](NC(=O)[C@H](Cc1ccccc1)NC(=O)[C@@H](NC(=O)CNC(=O)[C@H](CCC(N)=O)NC(=O)[C@H](CO)NC(=O)[C@@H](N)Cc1c[nH]cn1)[C@@H](C)O)[C@@H](C)O)C(C)C)C(=O)N[C@@H](CCC(=O)O)C(=O)N[C@@H](CO)C(=O)N[C@@H](C)C(=O)O) [Compound 30]	0.016
H-HSQGTFTSDYSKYLD[Aib]ARAESFVKWLEST-NH2 (SMILES CC(C)C[C@H](NC(=O)[C@H](Cc1c[nH]c2ccccc12)NC(=O)[C@H](CCCCN)NC(=O)[C@@H](NC(=O)[C@H](Cc1ccccc1)NC(=O)[C@H](CO)NC(=O)[C@H](CCC(=O)O)NC(=O)[C@H](C)NC(=O)[C@H](CCCNC(=N)N)NC(=O)[C@H](C)NC(=O)C(C)(C)NC(=O)[C@H](CC(=O)O)NC(=O)[C@H](CC(C)C)NC(=O)[C@H](Cc1ccc(O)cc1)NC(=O)[C@H](CCCCN)NC(=O)[C@H](CO)NC(=O)[C@H](Cc1ccc(O)cc1)NC(=O)[C@H](CC(=O)O)NC(=O)[C@H](CO)NC(=O)[C@@H](NC(=O)[C@H](Cc1ccccc1)NC(=O)[C@@H](NC(=O)CNC(=O)[C@H](CCC(N)=O)NC(=O)[C@H](CO)NC(=O)[C@@H](N)Cc1c[nH]cn1)[C@@H](C)O)[C@@H](C)O)C(C)C)C(=O)N[C@@H](CCC(=O)O)C(=O)N[C@@H](CO)C(=O)N[C@H](C(N)=O)[C@@H](C)O) [Compound 31]	0.0072
H-HS[Dab](Ac)GTFTSDYSKYLD[Aib]ARAESFVKWLEST-OH (SMILES CC(=O)NCC[C@H](NC(=O)[C@H](CO)NC(=O)[C@@H](N)Cc1c[nH]cn1)C(=O)NCC(=O)N[C@H](C(=O)N[C@@H](Cc1ccccc1)C(=O)N[C@H](C(=O)N[C@@H](CO)C(=O)N[C@@H](CC(=O)O)C(=O)N[C@@H](Cc1ccc(O)cc1)C(=O)N[C@@H](CO)C(=O)N[C@@H](CCCCN)C(=O)N[C@@H](Cc1ccc(O)cc1)C(=O)N[C@@H](CC(C)C)C(=O)N[C@@H](CC(=O)O)C(=O)NC(C)(C)C(=O)N[C@@H](C)C(=O)N[C@@H](CCCNC(=N)N)C(=O)N[C@@H](C)C(=O)N[C@@H](CCC(=O)O)C(=O)N[C@@H](CO)C(=O)N[C@@H](Cc1ccccc1)C(=O)N[C@H](C(=O)N[C@@H](CCCCN)C(=O)N[C@@H](Cc1c[nH]c2ccccc12)C(=O)N[C@@H](CC(C)C)C(=O)N[C@@H](CCC(=O)O)C(=O)N[C@@H](CO)C(=O)N[C@H](C(=O)O)[C@@H](C)O)C(C)C)[C@@H](C)O)[C@@H](C)O) [Compound 32]	0.0093
H-HSQGTFTSDYSKYLD[Aib]ARAEEFVSWLEKT-OH (SMILES CC(C)C[C@H](NC(=O)[C@H](Cc1c[nH]c2ccccc12)NC(=O)[C@H](CO)NC(=O)[C@@H](NC(=O)[C@H](Cc1ccccc1)NC(=O)[C@H](CCC(=O)O)NC(=O)[C@H](CCC(=O)O)NC(=O)[C@H](C)NC(=O)[C@H](CCCNC(=N)N)NC(=O)[C@H](C)NC(=O)C(C)(C)NC(=O)[C@H](CC(=O)O)NC(=O)[C@H](CC(C)C)NC(=O)[C@H](Cc1ccc(O)cc1)NC(=O)[C@H](CCCCN)NC(=O)[C@H](CO)NC(=O)[C@H](Cc1ccc(O)cc1)NC(=O)[C@H](CC(=O)O)NC(=O)[C@H](CO)NC(=O)[C@@H](NC(=O)[C@H](Cc1ccccc1)NC(=O)[C@@H](NC(=O)CNC(=O)[C@H](CCC(N)=O)NC(=O)[C@H](CO)NC(=O)[C@@H](N)Cc1c[nH]cn1)[C@@H](C)O)[C@@H](C)O)C(C)C)C(=O)N[C@@H](CCC(=O)O)C(=O)N[C@@H](CCCCN)C(=O)N[C@H](C(=O)O)[C@@H](C)O) [Compound 33]	0.044

Next, values leading:

GCG-R EC50 in vitro [nM] (cAMP, AlphaScreen, HEK293 cells expressing human Glucagon-R)	Binder
0.028	H-HSQGTFTSDYSKYLD[Aib]ARAEKFVEWLEST-OH (SMILES CC(C)C[C@H](NC(=O)[C@H](Cc1c[nH]c2ccccc12)NC(=O)[C@H](CCC(=O)O)NC(=O)[C@@H](NC(=O)[C@H](Cc1ccccc1)NC(=O)[C@H](CCCCN)NC(=O)[C@H](CCC(=O)O)NC(=O)[C@H](C)NC(=O)[C@H](CCCNC(=N)N)NC(=O)[C@H](C)NC(=O)C(C)(C)NC(=O)[C@H](CC(=O)O)NC(=O)[C@H](CC(C)C)NC(=O)[C@H](Cc1ccc(O)cc1)NC(=O)[C@H](CCCCN)NC(=O)[C@H](CO)NC(=O)[C@H](Cc1ccc(O)cc1)NC(=O)[C@H](CC(=O)O)NC(=O)[C@H](CO)NC(=O)[C@@H](NC(=O)[C@H](Cc1ccccc1)NC(=O)[C@@H](NC(=O)CNC(=O)[C@H](CCC(N)=O)NC(=O)[C@H](CO)NC(=O)[C@@H](N)Cc1c[nH]cn1)[C@@H](C)O)[C@@H](C)O)C(C)C)C(=O)N[C@@H](CCC(=O)O)C(=O)N[C@@H](CO)C(=O)N[C@H](C(=O)O)[C@@H](C)O) [Compound 34]
0.014	H-HSQGTFTSDYSKYLD[Aib]ARAEEFVAWLEST-OH (SMILES CC(C)C[C@H](NC(=O)[C@H](Cc1c[nH]c2ccccc12)NC(=O)[C@H](C)NC(=O)[C@@H](NC(=O)[C@H](Cc1ccccc1)NC(=O)[C@H](CCC(=O)O)NC(=O)[C@H](CCC(=O)O)NC(=O)[C@H](C)NC(=O)[C@H](CCCNC(=N)N)NC(=O)[C@H](C)NC(=O)C(C)(C)NC(=O)[C@H](CC(=O)O)NC(=O)[C@H](CC(C)C)NC(=O)[C@H](Cc1ccc(O)cc1)NC(=O)[C@H](CCCCN)NC(=O)[C@H](CO)NC(=O)[C@H](Cc1ccc(O)cc1)NC(=O)[C@H](CC(=O)O)NC(=O)[C@H](CO)NC(=O)[C@@H](NC(=O)[C@H](Cc1ccccc1)NC(=O)[C@@H](NC(=O)CNC(=O)[C@H](CCC(N)=O)NC(=O)[C@H](CO)NC(=O)[C@@H](N)Cc1c[nH]cn1)[C@@H](C)O)[C@@H](C)O)C(C)C)C(=O)N[C@@H](CCC(=O)O)C(=O)N[C@@H](CO)C(=O)N[C@H](C(=O)O)[C@@H](C)O) [Compound 35]
0.01	H-HSQGTFTSDYSKYLD[Aib]ARAEEFVKWLEET-OH (SMILES CC(C)C[C@H](NC(=O)[C@H](Cc1c[nH]c2ccccc12)NC(=O)[C@H](CCCCN)NC(=O)[C@@H](NC(=O)[C@H](Cc1ccccc1)NC(=O)[C@H](CCC(=O)O)NC(=O)[C@H](CCC(=O)O)NC(=O)[C@H](C)NC(=O)[C@H](CCCNC(=N)N)NC(=O)[C@H](C)NC(=O)C(C)(C)NC(=O)[C@H](CC(=O)O)NC(=O)[C@H](CC(C)C)NC(=O)[C@H](Cc1ccc(O)cc1)NC(=O)[C@H](CCCCN)NC(=O)[C@H](CO)NC(=O)[C@H](Cc1ccc(O)cc1)NC(=O)[C@H](CC(=O)O)NC(=O)[C@H](CO)NC(=O)[C@@H](NC(=O)[C@H](Cc1ccccc1)NC(=O)[C@@H](NC(=O)CNC(=O)[C@H](CCC(N)=O)NC(=O)[C@H](CO)NC(=O)[C@@H](N)Cc1c[nH]cn1)[C@@H](C)O)[C@@H](C)O)C(C)C)C(=O)N[C@@H](CCC(=O)O)C(=O)N[C@@H](CCC(=O)O)C(=O)N[C@H](C(=O)O)[C@@H](C)O) [Compound 36]
0.094	H-HSQGTFTSDYSKYLE[Aib]ARAEEFVKWLEST-OH (SMILES CC(C)C[C@H](NC(=O)[C@H](Cc1c[nH]c2ccccc12)NC(=O)[C@H](CCCCN)NC(=O)[C@@H](NC(=O)[C@H](Cc1ccccc1)NC(=O)[C@H](CCC(=O)O)NC(=O)[C@H](CCC(=O)O)NC(=O)[C@H](C)NC(=O)[C@H](CCCNC(=N)N)NC(=O)[C@H](C)NC(=O)C(C)(C)NC(=O)[C@H](CCC(=O)O)NC(=O)[C@H](CC(C)C)NC(=O)[C@H](Cc1ccc(O)cc1)NC(=O)[C@H](CCCCN)NC(=O)[C@H](CO)NC(=O)[C@H](Cc1ccc(O)cc1)NC(=O)[C@H](CC(=O)O)NC(=O)[C@H](CO)NC(=O)[C@@H](NC(=O)[C@H](Cc1ccccc1)NC(=O)[C@@H](NC(=O)CNC(=O)[C@H](CCC(N)=O)NC(=O)[C@H](CO)NC(=O)[C@@H](N)Cc1c[nH]cn1)[C@@H](C)O)[C@@H](C)O)C(C)C)C(=O)N[C@@H](CCC(=O)O)C(=O)N[C@@H](CO)C(=O)N[C@H](C(=O)O)[C@@H](C)O) [Compound 37]
